Test results as given in PMC4815018, “Oligomerization as a strategy for cold adaptation: Structure and dynamics of the GH1 β-glucosidase from Exiguobacterium antarcticum B7” (Scientific Reports, 2016).

Tests used:
[1] = biological target: T1, EaBglA (Exiguobacterium antarcticum, UniProt A0ABF7PFW8); experiment: colorimetric release of 4-nitrophenol at […] nm; format: biochemical; settings: 0.5 mM pNPG, 20 nM enzyme, 40 mM sodium phosphate pH 7.0, 30 °C, 10 min; tetramer
T1 construct: gene bglA

[2] = biological target: GH1 β-glucosidase from Exiguobacterium antarcticum B7 (Exiguobacterium antarcticum B7); experiment: SEC; Superdex 75 16/60, 20 mM sodium phosphate, 150 mM NaCl, pH 7.5, 0.5 mL/min; two peaks (tetramers and monomers); samples at 4 mg/mL
[3] = biological target: GH1 β-glucosidase from Exiguobacterium antarcticum B7 (Exiguobacterium antarcticum B7); experiment: AUC; sedimentation velocity, 35,000 rpm, 20 °C, 0.2, 0.4 and 1 mg/mL in 20 mM sodium phosphate, 150 mM NaCl, pH 7.4
[4] = biological target: GH1 β-glucosidase from Exiguobacterium antarcticum B7 (Exiguobacterium antarcticum B7); experiment: SAXS; 1 and 2 mg/mL in 20 mM sodium phosphate, 150 mM NaCl, pH 7.4, 20 °C; experimental curve and ab initio model compared with the crystallographic tetramer
[5] = biological target: GH1 β-glucosidase from Exiguobacterium antarcticum B7 (Exiguobacterium antarcticum B7); experiment: crystal structure; two crystal forms, P2(1) (0.1 M TRIS pH 8.5, 2% PEG400, 1.45 M lithium sulfate) and C222(1) (0.1 M CAPS pH 10.5, 0.2 M lithium sulfate, 2 M ammonium sulfate, in situ proteolysis with trypsin); 18 °C, protein at 15 mg/mL
[6] = biological target: GH1 β-glucosidase from Exiguobacterium antarcticum B7 (Exiguobacterium antarcticum B7)

T1 sequence (A0ABF7PFW8 entry or part of it): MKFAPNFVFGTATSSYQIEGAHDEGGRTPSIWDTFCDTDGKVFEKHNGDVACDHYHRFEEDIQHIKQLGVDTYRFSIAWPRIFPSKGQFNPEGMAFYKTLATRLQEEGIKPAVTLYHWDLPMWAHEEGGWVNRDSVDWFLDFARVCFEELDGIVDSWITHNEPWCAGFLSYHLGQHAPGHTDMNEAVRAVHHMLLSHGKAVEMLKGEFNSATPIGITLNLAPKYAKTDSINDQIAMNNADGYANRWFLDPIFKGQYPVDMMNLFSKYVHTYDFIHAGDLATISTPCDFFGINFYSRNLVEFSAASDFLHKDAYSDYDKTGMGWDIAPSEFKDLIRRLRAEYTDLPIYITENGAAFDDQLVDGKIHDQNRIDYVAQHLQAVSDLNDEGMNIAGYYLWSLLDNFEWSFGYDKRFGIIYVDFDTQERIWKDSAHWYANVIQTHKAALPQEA

O=[N+]([O-])c1ccc(O[C@@H]2O[C@H](CO)[C@@H](O)[C@H](O)[C@H]2O)cc1 [4-nitrophenyl β-D-glucopyranoside]
relative activity (%) [1]: Enzyme activity was measured using the colorimetric substrate 4-nitrophenyl β-D-glucopyranoside (pNPG

GH1 β-glucosidase from Exiguobacterium antarcticum B7 (enzyme)
stoichiometry N [2]: 4
stoichiometry N [3]: 4
stoichiometry N [4]: 4
stoichiometry N [5]: 4
relative enzyme activity on pNPG (30 °C, pH 7.0, 20 nM enzyme) of the monomer fraction against the tetramer fraction [6]: 10 fold
